From the nanobody polyreactivity screen of Harvey et al. (2022)

Experiment: yeast display, Sf9 membrane polyspecificity reagent, FACS + sequencing; frameworks hold sequencing errors
In short: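 In a synthetic yeast display library (Saccharomyces cerevisiae BJ5465), nanobody expression was induced with galactose for 36–48 hours. FACS gates were set low and high (top ~1%) using anti-HA fluorescence for expression and streptavidin fluorescence for binding of the Sf9 membrane reagent. Each polyreactivity label is drawn from the gate of origin.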
For “QVQLVESGGGLVQAGGSLRLSCAASGFTLDKYAMGSNRQAPGTERELVAAINWSGGSTYYADSVKGRFTISRDNAKNTVYLQMNSLKPEDTAVYYCNAQAYRRRRYYYWGQGTQVTVSS”, the “polyreactivity (PSR sort gate)” value was “high polyreactivity”.
For “QVQLVESGGGLVQAGGSHRLSCAASGLTFTDNAMGRYRQAPGKERELVAAMSRCGGTTYYAASVKGRFTISRDNAKNTVYLQMNSLKPEDTAVYYCNADTYRRLYGNYDYWGQGTQLTVSS”, the “polyreactivity (PSR sort gate)” value was “high polyreactivity”.
With “QVQLEESGGGLVQAGGSLRLSCAASGFTFFQYAMGWYRQAPGKERELVAAITSGVSTNYADSVKGRFTISRDNAKNTVYVQMNSLKPEDTAVYYCAADPRSLQSWRGEFAGEYWGQGTQVTVSS” the “polyreactivity (PSR sort gate)” value was “low polyreactivity”.
For “QVQLVESGGGLVQAGGSLRLSCAASGSTFYFYDMGWYRQAPGKERELVATIDDGGGSTYYADSVKGRFTISRDNAKNTVYLQMNSLKPEDTAVYYCAADYFVYPDDWYDYWGQGTQVTVSS”, the “polyreactivity (PSR sort gate)” value was “low polyreactivity”.
For “QVQLVESGGGLVQAGGSHRLSCAASGRIFGYNAMGWYRQAPGKEWELVAAISSPGNTYYADSVKGRFTISRDNAKNTVYLQMNSLKPEDTAVYYCARSWLYSQRRYDYWGQGTQVTVSS”, the “polyreactivity (PSR sort gate)” value was “low polyreactivity”.
In the case of “QLQHVESGGGLVQAGGSLRLSCAASGSTFYRNAKGWSRQAPGKEREFVADITLGGGSTYYADSVKGRFTISRDHAKNTVYLQMKSLKPEDTAVYFCAVDYWQLNYDYWGQGTQVTVSS”, the “polyreactivity (PSR sort gate)” value is reported as “low polyreactivity”.
With “QVQLVESGGGLVQAGGSLRLSCAASGSILTINAMGWYRQAPGKERELVARITISSGSTYYADSVKGRFTISRDNAKNTVYLQMNSLKPEDTAVYYCAVDTSYSDRYDYWGQGTQVTVSS” the “polyreactivity (PSR sort gate)” value was “low polyreactivity”.
For “QVQLVESGGGLVQAGGSLRLSCAASGYTVGTYDMGWYRQAPGKERELVAAISIGGSTNYADSVKGRFTMSRDNAKNTVYLQMNSLKPDATAVSYCASEVNVGTLLLSVIVEDGDYWGQGTQVTVSS”, the “polyreactivity (PSR sort gate)” value was “low polyreactivity”.
With “QVQLVESGGGIVQAGGSLRLSCPASGLTFIYYAMGWYRQAPGKERELVAAITRGTSTYYADSVKGRFTISRDNAKNTVYLQMNSLKPEDTAVYDCAAKSRRVRTYNYWGQGTQVTVSS” the “polyreactivity (PSR sort gate)” value was “high polyreactivity”.
For “QVQLVESGGGLVQAGGSLRLSCAASGRTFRRYAMGWYRQAPGKERELVAAITRGGSTNYADSVKGRFTISRDNAKDTVYLQMNSLKPEDTAVYYCAKDPLATFYGYWGQGTQVTVSS”, the “polyreactivity (PSR sort gate)” value was “high polyreactivity”.
In the case of “QVQLVESGGGLVQAGGSLRLSCAASGFTFDNYAMGWYRQAPGKERELVAAISSGGGRTYYADSVKGRFTISRDNAKNTVYLLMNSLKPEDTAVYYCAAVTLYKRYDYWGQGTQVTVSS”, the “polyreactivity (PSR sort gate)” value is reported as “high polyreactivity”.
With “QVQLEESGGGLVQAGGSLRLSCAASGFIITWYTMGWYRQAPGKERELVAAITSGGNTNYADSVKGRFTISRDNAKNTVYLQMNCLKPEDTAVYYCARGYLASRLKFAKYDYWGQGTQVTVSS” the “polyreactivity (PSR sort gate)” value was “high polyreactivity”.
With “QVQLVESGGGLVHAGGSLRLSCAASGRIFVRYAMGWYRQAPGKERELVAAISSSGSSTYYADSVKGRFTISRDNAKNTVYLQMNSLKPEETAVYYCAAASVRYPRYEYWGQGTQVTVSS” the “polyreactivity (PSR sort gate)” value was “high polyreactivity”.
In the case of “QVQLVESGGGLVQAGGSLRLSCAASGSIFVGYAMGWYRQAPGKERELVAAISWSGDSTYYADSVKGRFTISRDTAKNTVYLQMNSLKPEDTAVYYCAVDYAEIGPRREVEYDYWGQGTQVTVSS”, the “polyreactivity (PSR sort gate)” value is reported as “low polyreactivity”.
With “QVQLVESGGVLVQAGGSLRLSCAASGSTFFVYAMGWYRQAPGKERELVAAISSRGSTYYADSVKGRFTISRDNAKNTVYLQMNSLKPEDTAVYYCAAEYTVSYLRMDYWGQGTQVTVSS” the “polyreactivity (PSR sort gate)” value was “low polyreactivity”.
In the case of “QVQLVESGGGLVQAGGSLRLSCAASGITFVRYAMGWYRQAPGKERELVAAINFSGGNTYYADSVKGRFTISRDNAKNTVYLQMNSLKPEDTAVYYCAAKRQYKRSRMYYWGQGTQVTVSS”, the “polyreactivity (PSR sort gate)” value is reported as “high polyreactivity”.
With “QVQLVESGGRLVEAGGSLRLSCAASGSTISGNAMGWYRQAPGKERELVAEITSDDSTNYADSVKGRFTISRDNAKNSVYLQMNSLKPEDTAVYYCAADVTYPYYQDHSVDYFIGYAYWRQGTQVTVSS” the “polyreactivity (PSR sort gate)” value was “low polyreactivity”.
With “QVQLVESGGGLVQAGGSLRLSCAASGRTFQFYAMGWYRQAPGKERELVAAITYSGDSTYYADSVKGRFTISRDNAKNTVYLQMNSLKPEDTAVYYCAAGVWFYWYEYDYWGQGTQVTVSS” the “polyreactivity (PSR sort gate)” value was “high polyreactivity”.
With “QVHLVESGGGLVKAGGSLRLSCAASGSTSTLYAMGWYRQAPGKERELVAAISKSGGRTYYADSVKGRFTNSRDNAKNTVYLQMNSLKPEDTAVYYCNTVPGRYRTFDYWGQGTQVTVSS” the “polyreactivity (PSR sort gate)” value was “high polyreactivity”.
For “QVQLVESGGGLVQAGGSLRLSCAASGSISKINAMGWYRHAPGKERELVAAINTGDSTYYADSVKGRFTISRDNAKNTVYLQMNSLKPEDTAVYYCAAEGAPTGYDYWGQGTQVTVSS”, the “polyreactivity (PSR sort gate)” value was “low polyreactivity”.
With “QVQLVESGGGLVQAGGSLRLSCAASGFIFTSYAMGWYRQAPGKERELVAAISGSAASTYYADSVKGRFTISRDNAKNTVYLQMNSLKPEDTAVYYCAADYQGYTPSDGRYYWGQGTQVTVSS” the “polyreactivity (PSR sort gate)” value was “low polyreactivity”.
For “QVQLVESGGGLVQAGGSLRLSCAASGRTFIPYAMGWYRQAPGKVRELVAAIRNGGSTNYADSVKGRFTISRDNAKNTVYLQMNSLKPEATAVYYCNADLPVYVDYINGGYGYWGQGTQVTVSS”, the “polyreactivity (PSR sort gate)” value was “low polyreactivity”.
With “QVHLVESGGGIVQAGGSLRLSCAASGRTFGVNAMGWYRQAPGQEMELVAAISYSGASTFYADSLKGRFTISRDKAKNNVYLQMNSLKPEDTAVYYCAKRVVRYGKRMGYWGQGTQVTVSS” the “polyreactivity (PSR sort gate)” value was “high polyreactivity”.
With “QVQLVESGGGLVQAGGSLRLSCAASGSTFKRNAMGWYRQAPGKDRELVAAISFRGGSTYYADSVKGRFTISRDNAKNTVYLQMNSLKPEDTAVYYCAAGIYRIRGGGISFDYWGQGTQVTVSS” the “polyreactivity (PSR sort gate)” value was “high polyreactivity”.
With “QVQLVESGGGLVQAGGSLRLSCAASGSTFVDNAMGWYRQAPGKEREFVAAIDWSGGSTFYADSVKGRFTISRDNAKNTVYLQMNSLKPEDTAVYYCNADSYPQGDYWGQGSQVTVSS” the “polyreactivity (PSR sort gate)” value was “low polyreactivity”.
With “QVQLVESGGGLVQAGGSLRLSSAASGRIFYGYAMGWYRQAPGKERELVAAITNTGVDTYYADSVKGRFTISRDNEKNTVYLQMNSLKPEDTAVYYCAADGRRPKSGYWGQGTQVTVSS” the “polyreactivity (PSR sort gate)” value was “low polyreactivity”.
For “QVQLVESGGGLVQAGGSLRLSCAASGRIFGSYAMGWYRQAPGKERELVAAITTVGITYYADSVKGRFTISRDNAKNTVYLQMNSLKPEDTADYYCAAEYFDYPYWYDYWGQGTQVTVSS”, the “polyreactivity (PSR sort gate)” value was “high polyreactivity”.
In the case of “QVQLVESGGGLVQAGGSLRLSCAASGYIPYCYAMGWYRQAPGKERELVAAISSGGNTYYADSVKGRFTISRDNAKNTVYLQMNSLKPEDTAVYYCAAEFRNYIFHYKYNYWGQGTQVTVSS”, the “polyreactivity (PSR sort gate)” value is reported as “high polyreactivity”.
In the case of “QVQLVESGGGLVQAGGSLRLSCAASGSTFPTYAMGWYRQAPGKESELVAAISFSGARTYYADSVKGRFTISRDNAKNTVYLQMNSLKPEDTAVYYCAKDSSYSRRYEYWGQGTQVTVSS”, the “polyreactivity (PSR sort gate)” value is reported as “high polyreactivity”.
In the case of “QVQLVESGGGLVQAGGSLRLRCAASGSTFKFYAMGWYRQAPGKEREFVAAITGSGGSTYYADSVKGRFTISRDNAKNTVYLQMNSLKPEDTAVYYCNTTPVLQLYYWGQGTQVTVSS”, the “polyreactivity (PSR sort gate)” value is reported as “low polyreactivity”.
In the case of “QVQLVESGGGLVQAGGSLRLSCAASGRISVRNTMGWYRQAPGKERELVARISSTGGSTYYADSVKGRFTISRDNAKNTVYLQMNSLKPEDTAVYYCNAKYYTRYPYLGKGDYWGQGTQVTVSS”, the “polyreactivity (PSR sort gate)” value is reported as “high polyreactivity”.
In the case of “QVQLVESGGVLVQAGGSLRLSCAASGSTFQKYTMGWYRQAPGKERELVAGISGGGSTYYADSVKGRFTISRDNAKNTVYLQMNSLKPEDTAVYSCAAETLYTGPPPRYDYWGQGTQVTVSS”, the “polyreactivity (PSR sort gate)” value is reported as “low polyreactivity”.
For “QVQLVESGGGLVQAGGSLRLSCAASGFIFYRYAMVWYRQAPGKEREFVARISANGGRTYYADSVKGRFTISRDNAKNTVYLQMNSLKPEDTAVYYCNAGRYATPYNYWGQGTQVTVSS”, the “polyreactivity (PSR sort gate)” value was “high polyreactivity”.
For “QVQLVESGGGLVQAGGSLRLSCAASGSILAGNTMVSYRQAPGKERELVATISKRGGSTYYADSVKGRFTISRDNAKNTVYLQMNSLKPEDTAVYYCAAALRAKHYYWGQGTQVTVSS”, the “polyreactivity (PSR sort gate)” value was “high polyreactivity”.
For “QVQLVESGGGLVQAGGSLRLSCAASGSTFTAYVMGWYRQAPGKERELVAAISSSGGRTYYADSVKGRFTISRDNAKNTVYLQMNSLKPEDTAVYYCAARSGPLAYDYWGQGTQVTVSS”, the “polyreactivity (PSR sort gate)” value was “high polyreactivity”.
With “QVQLVESGGGLVHAGGSLRLSCAASGRTFRAYAMGWYRQAPRKERDLVAAISGGGGSTYYADSVKGRFTISRDNAKNTVYLQMNRLKPEYTAVYYCAVKGTQKLAKYNYWGQGTQVTVSS” the “polyreactivity (PSR sort gate)” value was “high polyreactivity”.
For “QVQLVESGGGLVQAGGSLRLSCAASGFTFTRYAMGWYRPAPGKERELVAAISWNGGSMYYADSVKGRFTISRDNAKNTVYLQMNSLKPEDTAVYYCAVRFKYQWSKFGYWGQGTQVTVSS”, the “polyreactivity (PSR sort gate)” value was “high polyreactivity”.
In the case of “QVQLVESGGGLVQAGGSLRLSCAASGSIFYHNAMGWYRQAPGKERELVAAISSSGGNTYYADSVKGRFTISRDNAKNTVYLQLNSLKPEDTAVYYCNKGFSYRSGRGYWGQGTQVTVSS”, the “polyreactivity (PSR sort gate)” value is reported as “high polyreactivity”.
In the case of “QVQLVESGGGLVQAGGSLRLSCAASGRTSIPYARGWYRQAPGKERELVAAISYSVGRTYYADSVKGRFTISRDNAKNTVYLQMNSLKPEDTAVYYCAAEYNGVVRDYDYWGQGTQVTVSS”, the “polyreactivity (PSR sort gate)” value is reported as “low polyreactivity”.
In the case of “QVQLVESGGGLVQAGGSLRLSCAASGFTFLPYVMGWYRQAPGKERELVAAMSSSGGSTYYADSVKGRFTISRDNAKNTVYLQMNSLKPEDTAVYYCAKDIGVRRRDFEDYEYWGQGTQVTVSS”, the “polyreactivity (PSR sort gate)” value is reported as “low polyreactivity”.
With “QVQLVESGGGLVQAGGSLRLSCAASGNTIIRYAMGWYRQAPGKERELVAAISYSGGRTYYADSVKGRFTISRDNAKNTVYLQMNSLKPEDTAVYYCAARYYPSGYRKKMYYWGQGTQVTVSS” the “polyreactivity (PSR sort gate)” value was “high polyreactivity”.
In the case of “QVQLVESGGCLDQAGGSLRLSCAASGRIFDHYAMGWYRQAPGKEMELVAAITRSGGITYYADSVKGRFTISRDNAKNTVYLQMNSLKPEDTAVYYCAALSYRYTDKFDYWGQGTQVTVSS”, the “polyreactivity (PSR sort gate)” value is reported as “low polyreactivity”.
With “PVQLVESGGGLVQAGGSLRLSCAASGRTFYAFDMGWSRQAPGKERELVSRITSGGSTDYADSVKGRFTSSRDNAKNTVYLQMNSLKPEDTAVYYCAAETSYAVSTGDHFDYWGQGTQVTVSS” the “polyreactivity (PSR sort gate)” value was “high polyreactivity”.
